These results are taken from PMC4137731, “C-Terminal Domain Swapping of SSB Changes the Size of the ssDNA Binding Site”.

What all share (details): protein: recombinant; tags: none (untagged); chain copies: 4; label: 5' 32P
The target in series [1] is T1, StSSB (Salmonella enterica serovar Typhimurium …, UniProt P0A2F6 1-176). In words: EMSA; monomer conc.; 1 complex; 20 mM Tris-HCl pH 8.0, 100 mM NaCl, 25°C 30 min, 1.7 nM DNA, protein 0-5000 nM; native 8% PAGE in TBE at 4°C.
Series [2] deals with T2, KpSSB (Klebsiella pneumoniae subsp. pneumoniae …, UniProt A6TGW7 1-174). In words: EMSA; no band shift up to 5000 nM; 20 mM Tris-HCl pH 8.0, 100 mM NaCl, 25°C 30 min, 1.7 nM DNA, protein 0-5000 nM; native 8% PAGE in TBE at 4°C.
The target of series [3] is T2, KpSSB. In words: EMSA; monomer conc.; 1 complex; 20 mM Tris-HCl pH 8.0, 100 mM NaCl, 25°C 30 min, 1.7 nM DNA, protein 0-5000 nM; native 8% PAGE in TBE at 4°C.
For series [4], the target named is T3, PaSSB (Pseudomonas aeruginosa PAO1, UniProt P40947 1-165). The description is as above.
Series [5] concerns the target T1, StSSB. In words: EMSA; monomer conc.; 2 complexes; 20 mM Tris-HCl pH 8.0, 100 mM NaCl, 25°C 30 min, 1.7 nM DNA, protein 0-5000 nM; native 8% PAGE in TBE at 4°C.
In series [6] the target is T3, PaSSB. Described as above.
Series [7] has as its target T2, KpSSB. The description is as above.

Take TTTTTTTTTTTTTTT (ssDNA) [dT15]: the “apparent K (half saturation)” value with StSSB [1] came to 650 ± 120 nM. Regarding TTTTTTTTTTTTTTTTTTTT (ssDNA) [dT20], the binding result with KpSSB [2] is “no binding”. Besides, in the series with StSSB [1], the “apparent K (half saturation)” value is 450 ± 80 nM. Regarding TTTTTTTTTTTTTTTTTTTTTTTTT (ssDNA) [dT25], the “apparent K (half saturation)” value with KpSSB [3] was determined as 200 ± 20 nM; with PaSSB [4] it was 1700 ± 250 nM. With TTTTTTTTTTTTTTTTTTTTTTTTTTTTTTTTTTT (ssDNA) [dT35], the “apparent K (half saturation)” value with KpSSB [3] was determined as 220 ± 30 nM; in the series with PaSSB [4], 950 ± 180 nM.

Regarding TTTTTTTTTTTTTTTTTTTTTTTTTTTTTTTTTTTTTTTTTTTTTTTTTT (ssDNA) [dT50], the “apparent K (half saturation)” value is 440 ± 50 nM with StSSB [5] and 110 ± 20 nM in the series with KpSSB [3].

B1: dT65 (ssDNA)
DNA: TTTTTTTTTTTTTTTTTTTTTTTTTTTTTTTTTTTTTTTTTTTTTTTTTTTTTTTTTTTTTTTTT
With B1, the “apparent K (half saturation)” value with PaSSB [6] was 550 ± 70 nM. On to TTTTTTTTTTTTTTTTTTTTTTTTTTTTTTTTTTTTTTTT (ssDNA) [dT40], for which, in the series with StSSB [1], the “apparent K (half saturation)” value turned out to be 420 ± 80 nM. For the molecule TTTTTTTTTTTTTTTTTTTTTTTTTTTTTTTTTTTTTTTTTTTTT (ssDNA) [dT45], the “apparent K (half saturation)” value with StSSB [5] is 440 ± 60 nM; with KpSSB [3], 100 ± 10 nM; with PaSSB [4], 780 ± 160 nM.

B2: dT55 (ssDNA)
DNA: TTTTTTTTTTTTTTTTTTTTTTTTTTTTTTTTTTTTTTTTTTTTTTTTTTTTTTT
B2: the “apparent K (half saturation)” value with KpSSB [7] was 100 ± 20 nM; with PaSSB [4], 820 ± 90 nM.

B3: dT60 (ssDNA)
DNA: TTTTTTTTTTTTTTTTTTTTTTTTTTTTTTTTTTTTTTTTTTTTTTTTTTTTTTTTTTTT
Regarding B3, the figures for the “apparent K (half saturation)” value with KpSSB [7] and with PaSSB [6] were 100 ± 10 nM and 810 ± 110 nM, respectively. TTTTTTTTTTTTTTTTTTTTTTTTTTTTTT (ssDNA) [dT30]: the “apparent K (half saturation)” value with StSSB [1] is 420 ± 60 nM.
